Article PMC10786891, “Massively parallel profiling of RNA-targeting CRISPR-Cas13d”
Substitutions are numbered along the chain they refer to. Names and notes keep the numbering of the source.

T1: EsCas13d, nuclease-dead (Eubacterium siraeum, UniProt B0MS50, R295A;H300A;R849A;H854A)
T1 sequence: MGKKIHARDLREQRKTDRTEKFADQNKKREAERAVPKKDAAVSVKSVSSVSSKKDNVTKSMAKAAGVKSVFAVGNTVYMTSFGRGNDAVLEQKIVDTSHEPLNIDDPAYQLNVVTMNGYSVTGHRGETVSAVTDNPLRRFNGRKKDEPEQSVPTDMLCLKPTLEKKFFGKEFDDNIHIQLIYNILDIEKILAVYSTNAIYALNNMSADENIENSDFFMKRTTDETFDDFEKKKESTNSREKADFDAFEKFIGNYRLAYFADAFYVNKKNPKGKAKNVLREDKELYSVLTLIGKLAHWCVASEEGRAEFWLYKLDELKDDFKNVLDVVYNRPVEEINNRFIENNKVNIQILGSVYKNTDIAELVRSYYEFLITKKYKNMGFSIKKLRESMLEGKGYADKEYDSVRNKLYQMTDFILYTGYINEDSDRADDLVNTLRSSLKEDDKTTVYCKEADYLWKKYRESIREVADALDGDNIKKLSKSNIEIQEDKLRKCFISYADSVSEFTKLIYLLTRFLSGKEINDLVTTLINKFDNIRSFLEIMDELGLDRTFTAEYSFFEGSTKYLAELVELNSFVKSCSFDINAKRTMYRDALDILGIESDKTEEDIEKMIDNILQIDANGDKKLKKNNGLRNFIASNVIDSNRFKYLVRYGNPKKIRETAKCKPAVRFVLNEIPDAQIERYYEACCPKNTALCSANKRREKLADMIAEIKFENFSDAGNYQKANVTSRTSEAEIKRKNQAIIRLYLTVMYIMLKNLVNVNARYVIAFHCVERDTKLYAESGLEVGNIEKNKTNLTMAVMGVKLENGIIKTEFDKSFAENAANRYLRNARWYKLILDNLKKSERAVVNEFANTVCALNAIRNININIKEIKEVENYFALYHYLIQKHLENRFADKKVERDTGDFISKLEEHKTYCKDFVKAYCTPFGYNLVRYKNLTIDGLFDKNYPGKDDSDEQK

B1: target 1 complement block 5-12 (mixed)
RNA 1: CACCCGUGCAAAAAUGCAGGGGUCUAAAACUGAGCGGAUAACCUCUCUAUGG
RNA 2: GGGAAUGGAUCCACAUCUACGAAUUCGUACCAUAGAGAGCAAUAGGCCUCACCGAGAUCGGAAGAGCACACGU
B2: target 1 U10A,A14G (mixed)
RNA 1: B1 RNA 1
RNA 2: B1 RNA 2 with A38G, C40G, A41U, U43A, A44U, G45C, G46C, C47G
B3: target 1 U11G (mixed)
RNA 1: B1 RNA 1
RNA 2: B1 RNA 2 with C40G, A41G, A42U, U43A, A44U, G45C, G46C, C47G
B4: target 1 A9U,U11G (mixed)
RNA 1: B1 RNA 1
RNA 2: B1 RNA 2 with C40G, A41G, A42U, A44U, G45C, G46C, C47G
B5: target 1 A1C,U11G (mixed)
RNA 1: B1 RNA 1
RNA 2: B1 RNA 2 with C40G, A41G, A42U, U43A, A44U, G45C, G46C, C47G, A51C
B6: target 1 insA 3' of 6,insG 3' of 2 (mixed)
RNA 1: B1 RNA 1
RNA 2: GGGAAUGGAUCCACAUCUACGAAUUCGUACCAUAGAGAGGUUAUCCAGCUCGACCGAGAUCGGAAGAGCACACGU
B7: target 1 insU 3' of 17,insG 3' of 6 (mixed)
RNA 1: B1 RNA 1
RNA 2: GGGAAUGGAUCCACAUCUACGAAUUCGUACCAUAGUAGAGGUUAUCCGGCUCACCGAGAUCGGAAGAGCACACGU
B8: target 1 insC 3' of 20,insC 3' of 16 (mixed)
RNA 1: B1 RNA 1
RNA 2: GGGAAUGGAUCCACAUCUACGAAUUCGUACCACUAGACGAGGUUAUCCGCUCACCGAGAUCGGAAGAGCACACGU
B9: target 1 insG 3' of 21,insU 3' of 21 (mixed)
RNA 1: B1 RNA 1
RNA 2: B8 RNA 2 with A32G, C33U, U34A, A35U, G36A, A37G, C38A
B10: target 1 U3C,U10G (mixed)
RNA 1: B1 RNA 1
RNA 2: B1 RNA 2 with C40G, A41U, A42G, U43A, A44U, G45C, G46C, C47G, U49C
B11: target 1 insU 3' of 22,insA 3' of 7 (mixed)
RNA 1: B1 RNA 1
RNA 2: B7 RNA 2 with C31U, A32C, U33A, A34U, G35A, U36G, C47A, G48C
B12: target 1 C4A,G15A (mixed)
RNA 1: B1 RNA 1
RNA 2: GGGAAUGGAUCCACAUCUACGAAUUCGUACCAUAGAAAGGUUAUCCGAUCACCGAGAUCGGAAGAGCACACGU
B13: target 1 G5A,U11G (mixed)
RNA 1: B1 RNA 1
RNA 2: B12 RNA 2 with A37G, U41G, G47A, A48C
B14: target 1 insA 3' of 11,insC 3' of 11 (mixed)
RNA 1: B1 RNA 1
RNA 2: GGGAAUGGAUCCACAUCUACGAAUUCGUACCAUAGAGAGGUACUAUCCGCUCACCGAGAUCGGAAGAGCACACGU
B15: target 1 insU 3' of 18,insA 3' of 13 (mixed)
RNA 1: B1 RNA 1
RNA 2: B8 RNA 2 with C33U, U34A, A35U, C38G, G39A, A40G, G41A
B16: target 1 G5A,U11A (mixed)
RNA 1: B1 RNA 1
RNA 2: B12 RNA 2 with A37G, U41A, G47A, A48C
B17: target 1 insA 3' of 15,insG 3' of 2 (mixed)
RNA 1: B1 RNA 1
RNA 2: B6 RNA 2 with G39A, U41G, A43U, U44A, C45U, A47C
B18: target 1 insG 3' of 8,insG 3' of 4 (mixed)
RNA 1: B1 RNA 1
RNA 2: B6 RNA 2 with C45G, A47C, U50G, C51U, G52C
B19: target 1 insU 3' of 21,insU 3' of 7 (mixed)
RNA 1: B1 RNA 1
RNA 2: B7 RNA 2 with A32U, U33A, A34U, G35A, U36G, C47U, G48C
B20: target 1 U10C,C21A (mixed)
RNA 1: B1 RNA 1
RNA 2: B12 RNA 2 with C31A, A37G, U42C, A48C
B21: target 1 insA 3' of 11,insG 3' of 4 (mixed)
RNA 1: B1 RNA 1
RNA 2: B14 RNA 2 with C43U, U44A, A45U, U46C, C48G, G49C, C50G
B22: target 1 insA 3' of 12,insU 3' of 1 (mixed)
RNA 1: B1 RNA 1
RNA 2: B6 RNA 2 with U41A, A43U, U44A, C45U, A47C, G52A, A53U
B23: target 1 insG 3' of 7,insA 3' of 7 (mixed)
RNA 1: B1 RNA 1
RNA 2: B14 RNA 2 with A42U, C43A, A45C, U46G, C47A
B24: target 1 G5U,C21U (mixed)
RNA 1: B1 RNA 1
RNA 2: B12 RNA 2 with C31U, A37G, G47U, A48C
B25: target 1 insA 3' of 17,insU 3' of 17 (mixed)
RNA 1: B1 RNA 1
RNA 2: B14 RNA 2 with G37U, G40A, U41G, A42G, C43U
B26: target 1 C7G,G13U (mixed)
RNA 1: B1 RNA 1
RNA 2: B12 RNA 2 with A37G, G39U, C45G, A48C
B27: target 1 insU 3' of 21,insA 3' of 17 (mixed)
RNA 1: B1 RNA 1
RNA 2: B8 RNA 2 with A32U, C33A, C38A
B28: target 1 insU 3' of 17,insC 3' of 13 (mixed)
RNA 1: B1 RNA 1
RNA 2: B7 RNA 2 with G41C, U42G, A44U, U45A, C46U, G48C
B29: target 1 C4A,G13A (mixed)
RNA 1: B1 RNA 1
RNA 2: B12 RNA 2 with A37G, G39A
B30: target 1 insA 3' of 8,insG 3' of 2 (mixed)
RNA 1: B1 RNA 1
RNA 2: B6 RNA 2 with C45A, A47C
B31: target 1 insC 3' of 5,insA 3' of 4 (mixed)
RNA 1: B1 RNA 1
RNA 2: B6 RNA 2 with A47G, G48C, U50A, C51U, G52C
B32: target 1 insU 3' of 14,insC 3' of 14 (mixed)
RNA 1: B1 RNA 1
RNA 2: B14 RNA 2 with G39U, G40C, U41G, A42G, C43U
B33: target 1 G12C,A16G (mixed)
RNA 1: B1 RNA 1
RNA 2: B12 RNA 2 with A36G, A37G, G40C, A48C
B34: target 1 insA 3' of 19,insC 3' of 13 (mixed)
RNA 1: B1 RNA 1
RNA 2: B8 RNA 2 with C33U, U34A, C38G, G39A, A40G, G41C
B35: target 1 insG 3' of 22,insC 3' of 9 (mixed)
RNA 1: B1 RNA 1
RNA 2: B8 RNA 2 with C31G, A32C, C33A, C38G, G39A, A40G, G42U, U44A, A45C

Target: T1, EsCas13d, nuclease-dead
Experiment: crRNA (strand 1, pre-loaded); Mg2+; 40 mM Tris-HCl pH 7.5, 150 mM NaCl, 6 mM MgCl2, 1 mM DTT, 0.1% Tween-20, 0.2 mg/ml BSA; 25 C; 10 min per concentration, then washed
Settings: tags: His6-TwinStrep-SUMO cleaved; N-terminal SNAP kept (SNAP-Surface 488); label: 3' end held by stalled T7 RNA polymerase

Binder	Kd [nM]
B1	15.8 ± 1.5
B2	12.3 ± 0.5
B3	22.4 ± 1.2
B4	10.1 ± 0.8
B5	50 ± 17
B6	27 ± 5
B7	29 ± 5
B8	16 ± 3
B9	17.1 ± 1.2
B10	26 ± 2.7
B11	21.9 ± 1.3
B12	20.9 ± 1.8
B13	51 ± 5
B14	12.3 ± 0.9
B15	22.6 ± 2.4
B16	54 ± 10
B17	6.7 ± 0.6
B18	7.1 ± 0.4

Binder	Kd [nM]
B19	54 ± 4
B20	60 ± 8
B21	9.7 ± 0.5
B22	37 ± 10
B23	10.5 ± 0.7
B24	5.96 ± 0.31
B25	13.4 ± 1.2
B26	54 ± 13
B27	~100
B28	44 ± 9
B29	14 ± 4
B30	16.7 ± 0.8
B31	13.9 ± 1.6
B32	37 ± 4
B33	75 ± 10
B34	35.3 ± 3.3
B35	26.3 ± 1.6
